Experiments:
[1] = biological target: Lys63-linked polyubiquitin (UniProt P0CG48); assay: co-immunoprecipitation (anti-FLAG beads), immunoblot quantification; settings: HEK293 cells; n = 3; parent: est. 1.0; read off a plot
[2] = biological target: p97/VCP (valosin-containing protein) (UniProt P55072); assay: as above; settings: HEK293 cells; n = 3; parent: est. 1.0; read off a plot
Sequence of UniProt P55072 (P55072 whole entry): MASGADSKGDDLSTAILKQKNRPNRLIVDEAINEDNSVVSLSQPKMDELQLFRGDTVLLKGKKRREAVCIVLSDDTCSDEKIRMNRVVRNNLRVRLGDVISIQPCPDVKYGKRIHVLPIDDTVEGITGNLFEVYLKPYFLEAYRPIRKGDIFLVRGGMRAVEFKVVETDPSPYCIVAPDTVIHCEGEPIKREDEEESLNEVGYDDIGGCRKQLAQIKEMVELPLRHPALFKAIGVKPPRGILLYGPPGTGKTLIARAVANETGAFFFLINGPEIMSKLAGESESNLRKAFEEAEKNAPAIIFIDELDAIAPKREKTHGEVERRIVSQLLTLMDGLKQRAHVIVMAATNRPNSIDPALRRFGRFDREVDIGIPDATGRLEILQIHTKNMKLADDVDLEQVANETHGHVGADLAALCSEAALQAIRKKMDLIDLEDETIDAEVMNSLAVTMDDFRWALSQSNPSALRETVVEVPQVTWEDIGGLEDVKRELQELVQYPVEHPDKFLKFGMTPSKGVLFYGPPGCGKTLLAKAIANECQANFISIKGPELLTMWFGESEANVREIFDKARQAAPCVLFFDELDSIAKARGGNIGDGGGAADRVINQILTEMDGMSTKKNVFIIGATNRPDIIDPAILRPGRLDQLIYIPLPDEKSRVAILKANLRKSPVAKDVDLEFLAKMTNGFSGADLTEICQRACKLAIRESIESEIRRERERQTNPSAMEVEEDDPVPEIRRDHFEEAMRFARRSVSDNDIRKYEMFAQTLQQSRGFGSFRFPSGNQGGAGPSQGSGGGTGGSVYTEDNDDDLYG

“RHBDL4mycFLAG (from UniProt Q8TEB9) AllY>F” was tested, and the ratio to parent [1] was 0.36 and the ratio to parent [2] was 0.22.

Reference: article PMC6663880
